Series [1] relates to HCC827 ER15 cells. The conditions noted are these: HCC827 ER15, 72 hours, L3-1Y 0.14 μg/ml, Erlotinib 10 nm.
Description: HCC827 ER15, which expresses c-Met at a high level but Cbl at a relatively low level was used in assay for the apoptotic effect of a combination dosage of an anti-c-Met antibody and an EGFR antagonist.
Then, cell viability was measured in the same manner as in Example 1.4.
The test system of series [2] is EBC-1 tumor. Description: Tumor xenograft model, EBC-1. The conditions noted are these: EBC-1 xenograft, 5 mg/kg I.V. once/week, 28th day. Format: in vivo, BALB/c nude mice. How it is done: (§1) For use in examining in vivo effects of anti-c-Met antibody on tumor growth, male BALB/c nude mice, 5˜6 weeks old, were xenografted with a tumor (all experiments were carried out in Pharmalegacy, China). For at least one week before the transplantation, the mice were acclimated.
(§2) Then, the mice were anesthetized with 1-2% isofuran and xenografted subcutaneously in the right flank with 5×10^6 cells of EBC-1 or HS746T. Seven days after the grafting, the tumors measured 50 mm3 or greater on average. The mice were divided into the following three groups: 5D5 (5 mg/kg I.V. once/week) treated, L3-1Y (5 mg/kg I.V. once/week) treated, and vehicle (PBS 0.2 ml I.V. once/week) treated (control). Each group was composed of 15 mice.
(§3) Over a total of five weeks, volumes and weights of the tumors were measured […]. Tumor volume (V) was calculated according to the following formula: V (mm3)={Long Axis Length (mm)×(Small Axis Length (mm))2}/2.
(§4) L3-1Y (1) is an antibody based on hIgG1 with the Th7 hinge (usually referred to just as L3-1Y) while L3-1Y (2) contains the same epitope but has the hIgG2 backbone. […] Tumor suppression of each of the antibodies was expressed as percentages of volume reduction compared to the tumor volume on the 28th day of the vehicle-treated group (0%) in Table 3 for EBC-1 and Table 4 for HS746T.

Series [3] relates to HS746T tumor. The experiment in a line: Tumor xenograft model, HS746T. The conditions noted are these: 5 mg/kg I.V. once/week, 28th day. Format: in vivo, BALB/c nude mice. How it is done: as §1, §2, §3, §4

These results are taken from patent publication US9213031B2, “Use of Cbl as biomarker for identifying subject suitable for treatment with anti-c-Met antibody” (SAMSUNG ELECTRONICS CO., LTD., priority 2012, dated 2015).

As for `C#Cc1cccc(Nc2ncnc3cc(OCCOC)c(OCCOC)cc23)c1` [Erlotinib], the “cell viability as percentage of untreated control” value in series [1] was “almost no apoptotic effects”.

B1: L3-1Y (2): contains the same epitope as L3-1Y but has the hIgG2 backbone (antibody)
heavy: EVQLVESGGGLVQPGGSLRLSCAASGFTFTDYYMSWVRQAPGKGLEWLGFIRNKANGYTTEYSASVKGRFTISRDNSKNTLYLQMNSLRAEDTAVYYCARDNWFAYWGQGTLVTVSSASTKGPSVFPLAPCSRSTSESTAALGCLVKDYFPEPVTVSWNSGALTSGVHTFPAVLQSSGLYSLSSVVTVPSSNFGTQTYTCNVDHKPSNTKVDKTVERKCCVECPPCPAPPVAGPSVFLFPPKPKDTLMISRTPEVTCVVVDVSHEDPEVQFNWYVDGVEVHNAKTKPREEQFNSTFRVVSVLTVVHQDWLNGKEYKCKVSNKGLPAPIEKTISKTKGQPREPQVYTLPPSREEMTKNQVSLTCLVKGFYPSDIAVEWESNGQPENNYKTTPPMLDSDGSFFLYSKLTVDKSRWQQGNVFSCSVMHEALHNHYTQKSLSLSPGK
light: DIQMTQSPSSLSASVGDRVTITCKSSQSLLASGNQNNYLAWYQQKPGKAPKMLIIWASTRVSGVPSRFSGSGSGTDFTLTISSLQPEDFATYYCQQSYSRPYTFGQGTKVEIKRTVAAPSVFIFPPSDEQLKSGTASVVCLLNNFYPREAKVQWKVDNALQSGNSQESVTEQDSKDSTYSLSSTLTLSKADYEKHKVYACEVTHQGLSSPVTKSFNRGEC
With B1, the entries for the “At d28:TV; tumor suppression as percentage of volume reduction compared to vehicle-treated group” value in series [2] and in series [3] were 87.0% and “Regression”, respectively.
